Assay [1] addresses T1, dimeric soluble FcγRIIa-Fc (UniProt P12318 34-217).
T1 construct: also called soluble FcγIIA; FcγIIA
T1 sequence (looked up): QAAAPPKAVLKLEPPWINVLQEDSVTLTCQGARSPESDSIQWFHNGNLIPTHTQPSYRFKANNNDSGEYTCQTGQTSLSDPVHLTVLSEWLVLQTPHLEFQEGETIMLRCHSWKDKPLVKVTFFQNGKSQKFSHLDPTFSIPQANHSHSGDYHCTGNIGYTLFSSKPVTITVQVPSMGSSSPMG
Kind of assay: ELISA, 100 ng/well soluble FcγIIA coated. On the procedure: Protocal for ELISA assay: 100 ng/well of soluble FcγIIA in carbonate buffer was coated on 96-well Maxisorp plates at 4° C. overnight. A serial of two-fold dilution of conditioned medium of Ch2B6; hu2B6HC/hu2B6LC; hu2B6HC/hu2B6LC(N50Y); hu2B6HC/hu2B6LC(N50Y,V51A); and purified IV.3 starting from 25 ng/well was added to the each well. The plate was incubated at room temperature for 1 hour. The binding was detected by HRP conjugated F(ab′)2 goat anti human IgG F(ab′)2 specific secondary antibody for Ch2B6 and all hu2B6 samples and HRP conjugated F(ab′)2 goat anti mouse IgG (H+L) secondary antibody for IV.3. After incubation with the secondary antibody for approximately 45 minutes, the plate was developed using a TMB substrate. After 5 mins incubation, the reaction was stopped by 1% H₂SO₄. The OD₄₅₀ nm was ready by SOFTmax program. Between each step, the plates were washed 3 times with PBS/0.1% Tween 20. The plates were blocked by 0.5% BSA in PBS/0.1% Tween 20 for 30 mins at room temperature before adding the serial diluted antibodies.
On the technique in general: In an ELISA, binding on a coated surface is turned into a signal by an enzyme label.

Assay [2] concerns the target T2, FcγRIIB (CD32B) on Daudi cells (human, UniProt P31994 43-310).
T2 construct: whole, on cells; also called this human B cell tumor line
T2 sequence (looked up): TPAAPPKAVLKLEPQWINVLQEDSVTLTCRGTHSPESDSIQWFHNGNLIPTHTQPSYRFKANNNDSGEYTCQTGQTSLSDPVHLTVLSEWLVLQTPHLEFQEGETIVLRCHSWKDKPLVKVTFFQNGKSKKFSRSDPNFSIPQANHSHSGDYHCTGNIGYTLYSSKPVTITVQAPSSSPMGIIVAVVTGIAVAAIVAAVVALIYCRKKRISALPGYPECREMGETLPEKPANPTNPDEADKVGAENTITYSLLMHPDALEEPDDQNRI
The experiment in a line: FACS on Daudi cells, antibody at 0.5 µg/ml. On the procedure:
(§1) Protocol for FACS analysis. Approximately 10⁶ Daudi cells were used for each antibody staining Cells were washed once with PBS. Primary antibodies (Ch2B6, Hu2B6Hc/ch2B6Lc, human IgG1 ) were diluted into 0.5, 0.1, 0.02 μg/mL in PBS/1% BSA and 100 μL of diluted antibodies was transferred to the cells. After 30 mins incubation at 4° C., cells were washed once with 1 mL PBS/1% BSA. PE conjugated F(ab′)₂ fragment of goat anti human IgG Fc specific (Jackson ImmunoReseach, Inc.) was used as secondary antibody at 1:1000 dilution. After 30 mins incubation at 4° C., cells were washed once with 1 mL PBS/1% BSA. The cells were then resuspended in 500 μL of PBS/1% BSA and subjected to be FACS analysis.
(§2) Transfections of HEK-293 cells were performed using the following combinations: hu2B6HC/hu2B6LC; hu2B6HC/hu2B6LC(N50Y); hu2B6HC/hu2B6LC(N50Y,V51A); ch2B6HC/ch2B6LC. After three days in culture the amount of human IgG expressed was quantitated by an ELISA assay, using the method described above. Binding to dimeric soluble FcγRIIb-Fc was determined by ELISA assay. […] FACS analysis was then performed to measure the binding of the mAbs to Daudi cells (Table 8).

Assay [3] addresses T2, FcγRIIB (CD32B) on Daudi cells. Kind of assay: FACS on Daudi cells, antibody at 0.1 µg/ml. As to the method:
as §1, §2

The target is the same in assay [4]. The experiment in a line: FACS on Daudi cells, antibody at 0.02 µg/ml. On the procedure: as §1, §2

B1: hu2B6HC/hu2B6LC(N50Y) (antibody, V domains shown)
VH: QVQLVQSGAEVKKPGASVKVSCKASGYTFTNYWIHWVRQAPGQGLEWMGVIDPSDTYPNYNKKFKGRVTMTTDTSTSTAYMELRSLRSDDTAVYYCARNGDSDYYSGMDYWGQGTTVTVSS
VL: EIVLTQSPDFQSVTPKEKVTITCRTSQSIGTNIHWYQQKPDQSPKLLIKYVSESISGVPSRFSGSGSGTDFTLTINSLEAEDAATYYCQQSNTWPFTFGGGTKVEIK
notes: Human C-Gamma1 and C-kappa constant regions; also called Hu2B6N50Y; Hu2B6 N50Y
As to B1, the binding result in assay [1] is on record as “no binding”.

B2: hu2B6HC/hu2B6LC(N50Y,V51A) (antibody, V domains shown)
VH: QVQLVQSGAEVKKPGASVKVSCKASGYTFTNYWIHWVRQAPGQGLEWMGVIDPSDTYPNYNKKFKGRVTMTTDTSTSTAYMELRSLRSDDTAVYYCARNGDSDYYSGMDYWGQGTTVTVSS
VL: EIVLTQSPDFQSVTPKEKVTITCRTSQSIGTNIHWYQQKPDQSPKLLIKYASESISGVPSRFSGSGSGTDFTLTINSLEAEDAATYYCQQSNTWPFTFGGGTKVEIK
notes: Human C-Gamma1 and C-kappa constant regions; also called Hu2B6N50Y,V51A; Hu2B6N50Y, V51A
Turning to B2, the binding result in assay [1] is “no binding”.

B3: hu2B6HC/hu2B6LC mAb (humanized 2B6) (antibody, V domains shown)
VH: QVQLVQSGAEVKKPGASVKVSCKASGYTFTNYWIHWVRQAPGQGLEWMGVIDPSDTYPNYNKKFKGRVTMTTDTSTSTAYMELRSLRSDDTAVYYCARNGDSDYYSGMDYWGQGTTVTVSS
VL: EIVLTQSPDFQSVTPKEKVTITCRTSQSIGTNIHWYQQKPDQSPKLLIKNVSESISGVPSRFSGSGSGTDFTLTINSLEAEDAATYYCQQSNTWPFTFGGGTKVEIK
notes: Human C-Gamma1 and C-kappa constant regions
Take B3: the binding result in assay [1] is on record as “no binding”.

B4: ch2B6HC/ch2B6LC mAb (chimeric 2B6) (antibody, V domains shown)
VH: QVQLQQPVTELVRPGASVMLSCKASDYPFTNYWIHWVKQRPGQGLEWIGVIDPSDTYPNYNKKFKGKATLTVVVSSSTAYMQLSSLTSDDSAVYYCARNGDSDYYSGMDYWGQGTSVTVSS
VL: DILLTQSPAILSVSPGERVSFSCRTSQSIGTNIHWYQQRTNGFPRLLIKNVSESISGIPSRFSGSGSGTDFILSINSVESEDIADYYCQQSNTWPFTFGGGTKLEIK
notes: Tested as conditioned medium of transfected HEK-293 cells; also called ch2B6 mAb; chimeric mAb
For B4, the “Mean Fluorescence” value in assay [2] is 193; in assay [3], 141; in assay [4], 45.6.

(Values after patent US20120141476A1 (MacroGenics, published 2012).)
